Consider 1 substance from patent publication US5504197.

This experiment deals with PDGF-A (PDGF dimer composed of two A chains).

For the substance “Platelet Derived Growth Factor-Associated Protein (PAP), rat, recombinant, expressed in bacteria”, the 3T3 cell mitogenicity assay (tritiated thymidine incorporation) in the presence and absence of PDGF is above 2 fold.
